This note sets out measurements from paper doi:10.1101/2020.07.08.194100.

Assay [1] concerns the target GST-RhoA^V14 (constitutively active RhoA) (UniProt P61586). In words: pull-down.
Assay [2] deals with GST-RhoA^N19 (inactive RhoA) (UniProt P61586). In words: pull-down.

In the case of “HA-tagged wild-type diacylglycerol kinase ζ (HA-DGKζ) (enzyme)”, the fold change of binding after PMA against vehicle control in assay [1] and in assay [2] was 2 fold throughout.
